Source: article PMC10361524
Values belong to the binder of their own block, whether it stands above or below them.

Key:
[1] = target: T1, IL-24B4 displayed on the yeast surface (version with an N-terminal linker of 17 amino acids, fused to a fluorescent protein) (human); experiment: flow cytometry on cells; yeast surface display of IL-24B4 (suspension enriched with 0.5% IL-24S yeast); CF640R-labelled IL-20R2D variants at 500, 100, 20, 4 and 0.1 nM in PBSB with 10 nM bilirubin, overnight at 4°C; apparent Kd (affinity and avidity); not irradiated
[2] = target: T1, IL-24B4 displayed on the yeast surface …; experiment: flow cytometry on cells; as a3, but the labelled IL-20R2D variant UV irradiated (365 nm); apparent Kd
[3] = target: T2, IL-20R2D Y74NBY (human), Q6UXL0; experiment: MST; IL-20R2D variants labelled with RED-tris-NTA dye on the His tag, held constant at 50 nM; unlabelled IL-24B4 titrated; 50 mM Tris pH 8, 100 mM NaCl, 0.02% pluronic F127; not irradiated
T2 chain: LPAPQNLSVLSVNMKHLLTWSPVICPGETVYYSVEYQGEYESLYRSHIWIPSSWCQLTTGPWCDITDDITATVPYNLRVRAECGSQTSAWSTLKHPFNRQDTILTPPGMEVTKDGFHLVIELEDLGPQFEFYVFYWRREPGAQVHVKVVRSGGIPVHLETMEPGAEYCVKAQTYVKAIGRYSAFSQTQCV

IL-20R2D (human), Q6UXL0 [4] = experiment: as above
[5] = target: T3, IL-20R2D Y70NBY (human), Q6UXL0; experiment: as above
T3 chain: T2 chain

[6] = target: T4, IL-20R2D Y70NBY/Y74NBY (human), Q6UXL0; experiment: as above
T4 chain: T2 chain

IL-20R2D (human), Q6UXL0 [7] = experiment: as above; remark: listed apart in the source
[8] = target: IL-20R2D Y70NBY + UV (human), Q6UXL0; experiment: MST; as a1, but the IL-20R2D variant irradiated at 365 nm (100 mW, 5 min) before use
IL-20R2D (human), Q6UXL0 [9] = experiment: as above

T1 sequence (main, as listed by the source): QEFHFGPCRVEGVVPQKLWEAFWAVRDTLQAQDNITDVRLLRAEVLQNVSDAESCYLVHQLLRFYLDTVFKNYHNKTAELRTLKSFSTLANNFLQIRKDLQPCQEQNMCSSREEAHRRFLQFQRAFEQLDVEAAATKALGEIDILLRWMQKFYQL

Kd [1]: 2000 nM
B1: IL-20R2D Y70NBY, Q6UXL0 30-233 (receptor)
chain: T2 chain
modifications: here or on the partner: ortho-nitrobenzyl-tyrosine (NBY) at 70

Kd [2]: 7.6 nM
B2: IL-20R2D Y70NBY + UV, Q6UXL0 30-233 (receptor)
chain: T2 chain
modifications: here or on the partner: UV-decaged, Tyr70 restored to canonical tyrosine; designed disulfide Cys59-Cys117

More lines, now with the values behind:

B3: IL-20R2D, Q6UXL0 30-233 (receptor)
chain: T2 chain
modifications: here or on the partner: designed disulfide Cys59-Cys117 (UniProt numbering)
Kd [2]: 9.6 nM | Kd [1]: 5 nM

B4: IL-24B4 (SUMO-cleaved, C-terminal Strep-tag), Q13007 52-206 (ligand)
chain: FHFGPCRVEGVVPQELWEAFWAVRDTLQAQDNITDVRLLRAEVLQNVSDAESCYLVHQLLRFYLDTVFKNYHNKTAELRTLKSFSTLANNFVLIVSDLQPCQEQNMCSSREEAHRRFLQFQRAFEQLDVEAAATKALGEIDILLTWMQKFYQL
modifications: not checked
Kd [3]: 430 nM | Kd (IL-20R2D (human), Q6UXL0 [4]): 630 nM | Kd [5]: > 94000 nM | Kd [6]: 570 nM | Kd (IL-20R2D (human), Q6UXL0 [7]): 500 nM | Kd [8]: 3300 nM | Kd (IL-20R2D (human), Q6UXL0 [9]): 3700 nM
